Measured values reported in the nanobody polyreactivity screen of Harvey et al. (2022).

Assay: yeast display, Sf9 membrane polyspecificity reagent, FACS + sequencing; frameworks hold sequencing errors
Summary of the method: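 A synthetic nanobody library was expressed on Saccharomyces cerevisiae BJ5465 by galactose induction for 36–48 hours. The library was stained for 1 hour at 4 °C with 10% biotinylated, detergent-solubilized Sf9 membrane reagent and enriched with streptavidin microbeads before FACS. Low and high (top ~1%) gates were set on anti-HA fluorescence for expression and streptavidin fluorescence for reagent binding, and each polyreactivity label reflects the gate of origin.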

Row | Sequence | polyreactivity (PSR sort gate)
1 | QVQLVESGGGLVQAGGSLRLSCGASGSFFYFYSMGWYRQAPGKEREVVAAITDGGSTHYADSVKGRFTISRDNAKNTVDLQMNSLKPEDTAVYYCAAQWHYYLGSGYQYDYWGQGTQVTVSS | low polyreactivity
2 | QVQLVESGGGLVQAGGSLRLSCGASGSTSDIYAMGWYRQAPGKESEFGAAISLTGGTTYYADSVKGRFTISCENAKNTVYLQMNSLKQEDTAVYYCNADVGWWGYDDDYWGQGTQVTVSS | high polyreactivity
3 | QVQLVESGGGLVQAGGSLRLSCGASGYIFDRYPMGWYRQAPGKEREVVASISRRGGSTYYADSVKGRFTISRDNAKNTVYLQMNSLKPEATAVYYCAAKWPFRRSAVVRYDYWGQGTQVTVSS | high polyreactivity
4 | QVQLVESGGGLVQAGGSLRLSCPASASNYAAYTMAWYRQAPGKERECVAAITSGGSTNYADSVKGRFTISRDNAKNTVYLQMNSLKPEDTAVYYCAAEDLNYYFWRSLWFGIYDDWGQGTQVTVSS | low polyreactivity
5 | QVQLVESGGGLVQAGGSLRLSCPASGFIFSIYTMGWYRQAPGKERELVAAITRSGSSTYYADSVKGRFTISRDNAKNTVYLQMNSLKPEDTAVSYCNRLCFGQYQPFYGYWGQGTQVTVSS | high polyreactivity
6 | QVQLVESGGGLVQAGGSLRLSCPASGFTFYVNAMGWSRQAPGKERELVAGITTSDGSTYYADSVKGRFTISRDNAKNNVYLQMNSLKPEDTAVYYCAAAITWYQLYQRSGGDYWGQGTQVTVSS | low polyreactivity
7 | QVQLVESGGGLVQAGGSLRLSCPASGFTILDYAMGWYRQAPGKEREMVATINWSDVSTYYADSVKGRFTISRDTAKNTVYLQMNSLKPEDTAVYYCAVDVLTVGQSYDHWGQGTQVTVSS | high polyreactivity
8 | QVQLVESGGGLVQAGGSLRLSCPASGGIFEGNAMGWYRQAPGKEMELVASITYGGGSTYYADSVKGRFTISRDNAKNTVYLQMNSLKPEDTAVYYCAADATTPGVQNGYGSWGQGTQVTVSS | low polyreactivity
9 | QVQLVESGGGLVQAGGSLRLSCPASGITFVPNAMGWYRQAPGKERELVARIDNGVSTNYADSVKGRFTISRDNAKNTVYLQMNSLKPEDTAVYYCAKDGYWGDWDLDYWGQGTQVTVSS | low polyreactivity
10 | QVQLVESGGGLVQAGGSLRLSCPASGLIFLHNAMGWYRQAPGKERELVATISLSGGSTYADSVKGRFTISRDNAKNTVYLQLYSLKPEDTAVYYCAAGGQYYIIRYDYWGQGTQVTVSS | low polyreactivity
11 | QVQLVESGGGLVQAGGSLRLSCPASGLTFQRYAMGWYRQAPGKERELVAAITVGGGRTYYADSVKGRFTISRDNAKNTVYLQMNSLKPEDTAVYYCAADSHASTYDYWGQGTQVTVSS | low polyreactivity
12 | QVQLVESGGGLVQAGGSLRLSCPASGLTFWLYALGWYRQAPGKERELVAAITRSGGSTSYADSVKGRFTISRDNAKNTVYLQMNSLKPEDTAVYYCNADSPGYTAVRLVEFDYWGQGTQVTVSS | low polyreactivity
13 | QVQLVESGGGLVQAGGSLRLSCPASGNIFLSYAMGWYRQAPGKERELVAGISASGGRTYYADSVKGRFTISRDNAKNTVYLQMNSLKPEDTAVYYCATRGQTRTTTRYYSWGQGTQVTVSS | high polyreactivity
14 | QVQLVESGGGLVQAGGSLRLSCPASGRIFVLGWYRQAPGKERELVAAINDSGDITYYADSVKGRFSISRDNAKYTVYLQMNSLKPEDTAVYYCAASAAYYGFYKSVTYDYWGQGSQVTVSS | low polyreactivity
15 | QVQLVESGGGLVQAGGSLRLSCPASGRIFYKYAMGWYRQAPGKERELVAAISSTGGSTNYADSVKGRFTISRDNAKNSVYFQMNSLKPEDTAVYYCNAVSRYYYPYYYWGQGTQVTVSS | low polyreactivity
16 | QVQLVESGGGLVQAGGSLRLSCPASGRIFYVYAMGWYRQAPGKERELVAAITSSGGSTNYADSVKGRFTISRDNAKNTVYLQMNSLKPEDTAVYYCAAKPYYIPTRTYSHYNFWGQGTQVTVSS | high polyreactivity
17 | QVQLVESGGGLVQAGGSLRLSCPASGRTFILNDMGRYRQAPGKEREFVATIDWSGGSSYYADSVKGRFTISRDNAKNTVFLQMNSLKPEDTAVYYCNRAFVPVYDLDYYWGQGTQVTVSS | low polyreactivity
18 | QVQLVESGGGLVQAGGSLRLSCPASGSICRYYAMGWYRQAPGKERELVAVITRGGSTYYADSVKGRFTISRDNAKNTVYLQMNSLKPEDTAVYYCAADYWPAGLDRGYWGQGTQVTLSS | low polyreactivity
19 | QVQLVESGGGLVQAGGSLRLSCPASGSIFDVYTMGWYRQAPGKEMELVAAINTGGGSTYYADSVKGRFTISRDTAKNTVYLQMYSMKPEDTAVYSCAKEVSPYWTFDYWGQGTQVTVSS | low polyreactivity
20 | QVQLVESGGGLVQAGGSLRLSCPASGSIFPTYAMGRYRQAPGKERELVAAITTSGGNTFYADSVKGRFTISRDNAKNTVYLQMNRLKPEDTAVYYCAAYYSPYTVEYDYWGQGTLVTVSS | low polyreactivity
21 | QVQLVESGGGLVQAGGSLRLSCPASGSIFRFYTMGWYRQAPGKERELVASITWTGGSSYYADSVKGRFTISRDNAKNTVYLQMNSLKPEDTAVYYCAARRYLRLVGRYDYWGQGTQVTVSS | low polyreactivity
22 | QVQLVESGGGLVQAGGSLRLSCPASGSISRQYAMGWYRQAPGKERELVAAITVRGGSTYYADSVKGRFTISRDNAKNTVYLQMNSLKPEDTAVYYCAKYTRYSASYDYWGQGTQVTVSS | high polyreactivity

Row | Sequence | polyreactivity (PSR sort gate)
23 | QVQLVESGGGLVQAGGSLRLSCPASGSTFEDNAMGWYRQAPGKERELVAAISRTGGRTYYADSVKGRFTISRDNAKNTVYLQMNSLKPEDTAVYYCNAVYPAQRMDYWGQGTQVTVSS | high polyreactivity
24 | QVQLVESGGGLVQAGGSLRLSCPASGSTFQYNPLGWYRQAPGKERELVAAISRRGGSTYYADSVKGRFTISRDNAKNTVYLQMNSLKPEDTAVYYCAVSAYKGYDYWGQGTQVTVSS | high polyreactivity
25 | QVQLVESGGGLVQAGGSLRLSCPASGSTFRHYVMGRYRQAPGKERELVAAINWTSGSTNYADSVKGRFTISRDNAKNTVYFQMNSLKPEDTAVYYCAARGPVGYGWRYRPWHDYWGQGTQVTVSS | high polyreactivity
26 | QVQLVESGGGLVQAGGSLRLSCPASGSTIPLYAMGWYRPAPGKERELVAAISRRGGRTYYADSVKGRFTISRDNAKNSVYLQMNSLKPEDTAVYYCATAQGSRVDYWGQGTQVTVSS | high polyreactivity
27 | QVQLVESGGGLVQAGGSLRLSCPASGSTLWGYAMGWYRQAPGKERELVAAITSSGGITYYADSVKGRFTISRDNAKNTVYLQMNSLKPEDTAVYYCAVDYYVVGWTYLYYYRGQGTQVTVSS | low polyreactivity
28 | QVQLVESGGGLVQAGGSLRLSCPASVSIFYTYAMGLYRQAPGKEREFFASNTYRGSNTYYADSVKGRFTISRDNAKNTVYLQMNSLKPEDTAVYYCAAERYLYYPPYIYETSYVYWGQGSQVTVSS | low polyreactivity
29 | QVQLVESGGGLVQAGGSLRLSCPPSGYTISHYAMGWYRQAPGKERELVAGITWSGGSTYYADSVKGRFTISRDNAKNTVYLQMNSLKPEDTSVYFCAAKYYWYYSYSGIPLFDYWGQGTQVTVSS | low polyreactivity
30 | QVQLVESGGGLVQAGGSLRLSCSACGFIFPSYVMGWYRQAPGKERELVATISRSGGSTYYADSVKGRFTISRDNAKNTVYLQMNSLKPEDTAVYYCATRRRCRYSPYSPYDYWGQGTQVTVTS | high polyreactivity
31 | QVQLVESGGGLVQAGGSLRLSCSASERTFYWNTMGWYRQAPGKERELVAAIRTSGGSTYYADSVKGRFTISRDNAKNTVYLQMNSLKPEDTAVYYCAAKYRNYNTRYDYWGQGTQVTVSS | high polyreactivity
32 | QVQLVESGGGLVQAGGSLRLSCSASGFIFGKYAMGRYRQAPGKERELVAAISKSGGSTYYADSVKGRFTISRDNAKNTVYLQMNSLKPEDTAVYYCDARSLGHYGSWGQGTQVTVSS | high polyreactivity
33 | QVQLVESGGGLVQAGGSLRLSCSASGFIFRRYAMGWYRQAPGKEREFVAAITSSGTSTYYADSVKGRFTISRDNAKNTVYLQMNSLKPEDTAVYYCADVYQYTHYYSNYGYWGEGTQVTVSS | high polyreactivity
34 | QVQLVESGGGLVQAGGSLRLSCSASGFIFTTYAMAWYRQAPGKERELVAAIRNSDGSTYYADSVKGRFTISRDNAKNTVYLQMNSLKPVDTAVYYCAKRYRGEPGRTYGYWGQGTQVTVSS | high polyreactivity
35 | QVQLVESGGGLVQAGGSLRLSCSASGFIFTYVMGWYRQAPGKERELVAVITNGGSTYYADSVKGRFTISRDNAMNTVYLQMNSLKPEDTAVYYCAARARFRYDSYYYWGQGTQVTVSS | high polyreactivity
36 | QVQLVESGGGLVQAGGSLRLSCSASGFTFKRYAKGLYRQAHGKERELVASISSSGGRTYYADSVKGRFTISRDNAKNTVYLQMNSLKPEDTAVYYCSASDWWGYYFWGQGTQVTVSS | high polyreactivity
37 | QVQLVESGGGLVQAGGSLRLSCSASGGTFSYYAMGWYRQAPGKERELVASISTDGGSTYYADSVKGRFTISRDNAKNTVYLQMNSLKPEDTAVYYCNARPRGYSDRYGYWGQGTQVTVSS | high polyreactivity
38 | QVQLVESGGGLVQAGGSLRLSCSASGIIFGFYAMGWYRQAPGKERELVAAITNDGGNTNYADSVKGRFTISRDNAKNTVYLQMNSLKPEDTAVYYCNADRTQDRNPYTYATFDYWGQGTQVTVSS | low polyreactivity
39 | QVQLVESGGGLVQAGGSLRLSCSASGIIFPTYAMGLYRQAPGKERELVAAIRWTGGSTYYADSVKGRFTISRDNAKNTVYLQMNSLKPEDTAVYYCAAAYRGRYKYYYWGQGTQVTVSS | high polyreactivity
40 | QVQLVESGGGLVQAGGSLRLSCSASGITFFTYAMGWYRQAPGKERELVAAISGSGGSTYYADSVKGRFTISRDNAKNTVYLQMNSLKPEDTADYYCAAEYTYASPYDYWGQGTQVTVSS | low polyreactivity
41 | QVQLVESGGGLVQAGGSLRLSCSASGITFPDYAMGWYRQAPVKERELVATISSSGGNTYYADSVKGRFTISRDNAKNTVYLQMNSLKPEDTAVYYCATVSYYWGYDYWGQGTQVTVSS | low polyreactivity
42 | QVQLVESGGGLVQAGGSLRLSCSASGITFWKYAMGWYRQAPGKERELVASISGRGGSTYYADSVKGRFTISRYKANNTVYLQMNSLKPEDTAVYYCAKYPGISGYNYWGQGTQVTVSS | high polyreactivity
43 | QVQLVESGGGLVQAGGSLRLSCSASGITYGGNEMGWYRQAPGTESELVAGIDDGGSTNYADSVKGRFTISRDNAKNTVYLQMNSLKPEDTAVYYCAVQGHPPLGILPGFLFDYWGQGTQVTVSS | low polyreactivity
